Positions count from the first letter of the chain named. Read-outs that look alike come from different tables or passages of the source.
T1: human type I IFN receptor on HEK-Blue IFN-α/β cells (human, UniProt P17181 28-557; P48551 27-515)
T1 sequence (looked up) 1: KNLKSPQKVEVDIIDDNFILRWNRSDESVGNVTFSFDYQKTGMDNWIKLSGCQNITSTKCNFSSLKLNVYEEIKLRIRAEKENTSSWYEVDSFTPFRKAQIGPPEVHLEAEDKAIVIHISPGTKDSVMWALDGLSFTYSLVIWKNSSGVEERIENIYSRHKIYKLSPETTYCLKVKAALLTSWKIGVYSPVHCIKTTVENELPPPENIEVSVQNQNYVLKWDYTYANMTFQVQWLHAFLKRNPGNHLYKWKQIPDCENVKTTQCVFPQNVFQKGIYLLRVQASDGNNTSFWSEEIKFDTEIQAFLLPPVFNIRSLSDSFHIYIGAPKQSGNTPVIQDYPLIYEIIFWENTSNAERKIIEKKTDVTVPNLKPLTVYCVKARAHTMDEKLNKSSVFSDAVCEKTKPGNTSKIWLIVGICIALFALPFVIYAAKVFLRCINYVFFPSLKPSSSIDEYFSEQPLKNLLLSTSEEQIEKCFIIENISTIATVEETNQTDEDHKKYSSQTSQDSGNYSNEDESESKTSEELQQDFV
T1 sequence (looked up) 2: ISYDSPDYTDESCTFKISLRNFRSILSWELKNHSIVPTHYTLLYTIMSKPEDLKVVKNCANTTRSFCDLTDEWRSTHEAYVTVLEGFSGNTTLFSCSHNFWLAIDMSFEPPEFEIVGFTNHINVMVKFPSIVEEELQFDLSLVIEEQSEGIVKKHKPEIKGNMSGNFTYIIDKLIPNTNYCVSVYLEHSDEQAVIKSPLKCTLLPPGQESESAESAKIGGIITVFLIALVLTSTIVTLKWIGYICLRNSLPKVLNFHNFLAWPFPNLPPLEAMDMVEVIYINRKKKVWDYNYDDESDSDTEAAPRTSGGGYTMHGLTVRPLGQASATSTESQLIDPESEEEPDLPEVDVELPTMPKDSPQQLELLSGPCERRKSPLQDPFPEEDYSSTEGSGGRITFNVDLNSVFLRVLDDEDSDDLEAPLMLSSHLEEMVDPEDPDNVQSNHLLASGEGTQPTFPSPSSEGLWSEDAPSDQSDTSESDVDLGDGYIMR

B1: IFA42 (antibody, human IgG2, kappa)
light: DIQMTQSPSSVSASVGDRVTITCRASQGIYSWLAWYQQKPGKAPNLLIYTASTLQSGVPSRFSGSGSGTDFTLTISSLQPEDFATYYCQQANIFPLTFGGGTKVEIKRTVAAPSVFIFPPSDEQLKSGTASVVCLLNNFYPREAKVQWKVDNALQSGNSQESVTEQDSKDSTYSLSSTLTLSKADYEKHKVYACEVTHQGLSSPVTKSFNRGECGGGGSGGGGSGGGGSGGGGSQDPYVKEAENLKKYFNAGHSDVADNGTLFLGILKNWKEESDRKIMQSQIVSFYFKLFKNFKDDQSIQKSVETIKEDMNVKFFNSNKKKRDDFEKLTNYSVTDLNVQRKAIHELIQVMAELSPAAKTGKRKRSQMLFRGRRASQ
heavy: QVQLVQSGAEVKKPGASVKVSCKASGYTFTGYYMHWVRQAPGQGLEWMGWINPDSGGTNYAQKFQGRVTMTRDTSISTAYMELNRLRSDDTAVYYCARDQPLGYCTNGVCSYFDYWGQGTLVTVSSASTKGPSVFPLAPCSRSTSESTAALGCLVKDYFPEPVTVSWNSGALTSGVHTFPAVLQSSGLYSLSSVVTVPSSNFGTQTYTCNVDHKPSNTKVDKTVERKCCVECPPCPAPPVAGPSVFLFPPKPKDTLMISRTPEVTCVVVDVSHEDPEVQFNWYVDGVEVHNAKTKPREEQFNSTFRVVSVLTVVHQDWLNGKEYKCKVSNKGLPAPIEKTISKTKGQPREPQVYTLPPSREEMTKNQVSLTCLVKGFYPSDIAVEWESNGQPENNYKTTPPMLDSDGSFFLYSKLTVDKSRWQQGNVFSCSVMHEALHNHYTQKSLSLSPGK
B2: IFA43 (antibody, human IgG2, kappa)
heavy: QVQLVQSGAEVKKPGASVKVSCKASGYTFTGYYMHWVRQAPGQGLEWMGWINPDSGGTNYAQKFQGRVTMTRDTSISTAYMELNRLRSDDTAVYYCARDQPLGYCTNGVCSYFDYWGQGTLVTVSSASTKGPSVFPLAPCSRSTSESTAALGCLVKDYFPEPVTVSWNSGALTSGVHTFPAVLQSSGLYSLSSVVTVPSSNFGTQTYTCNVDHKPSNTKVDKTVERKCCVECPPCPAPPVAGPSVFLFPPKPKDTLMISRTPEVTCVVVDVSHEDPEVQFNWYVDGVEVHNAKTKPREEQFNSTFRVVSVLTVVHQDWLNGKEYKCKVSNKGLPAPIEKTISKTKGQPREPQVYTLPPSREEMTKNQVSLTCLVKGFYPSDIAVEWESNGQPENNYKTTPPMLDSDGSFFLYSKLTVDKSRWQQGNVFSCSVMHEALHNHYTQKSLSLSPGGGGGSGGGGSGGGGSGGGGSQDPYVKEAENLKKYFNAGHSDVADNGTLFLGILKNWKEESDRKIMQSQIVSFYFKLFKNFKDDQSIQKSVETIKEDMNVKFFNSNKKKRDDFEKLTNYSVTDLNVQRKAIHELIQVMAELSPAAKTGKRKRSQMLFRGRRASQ
light: DIQMTQSPSSVSASVGDRVTITCRASQGIYSWLAWYQQKPGKAPNLLIYTASTLQSGVPSRFSGSGSGTDFTLTISSLQPEDFATYYCQQANIFPLTFGGGTKVEIKRTVAAPSVFIFPPSDEQLKSGTASVVCLLNNFYPREAKVQWKVDNALQSGNSQESVTEQDSKDSTYSLSSTLTLSKADYEKHKVYACEVTHQGLSSPVTKSFNRGEC
B3: IFA44 (antibody, human IgG2, kappa)
light: DIQMTQSPSSVSASVGDRVTITCRASQGIYSWLAWYQQKPGKAPNLLIYTASTLQSGVPSRFSGSGSGTDFTLTISSLQPEDFATYYCQQANIFPLTFGGGTKVEIKRTVAAPSVFIFPPSDEQLKSGTASVVCLLNNFYPREAKVQWKVDNALQSGNSQESVTEQDSKDSTYSLSSTLTLSKADYEKHKVYACEVTHQGLSSPVTKSFNRGECGGGGSGGGGSGGGGSGGGGSVPVARLHGALPDARGCHIAQFKSLSPQELQAFKRAKDALEESLLLKDCRCHSRLFPRTWDLRQLQVRERPMALEAELALTLKVLEATADTDPALVDVLDQPLHTLHHILSQFRACIQPQPTAGPRTRGRLHHWLYRLQEAPKKESPGCLEASVTFNLFRLLTRDLNCVASGDLCV
heavy: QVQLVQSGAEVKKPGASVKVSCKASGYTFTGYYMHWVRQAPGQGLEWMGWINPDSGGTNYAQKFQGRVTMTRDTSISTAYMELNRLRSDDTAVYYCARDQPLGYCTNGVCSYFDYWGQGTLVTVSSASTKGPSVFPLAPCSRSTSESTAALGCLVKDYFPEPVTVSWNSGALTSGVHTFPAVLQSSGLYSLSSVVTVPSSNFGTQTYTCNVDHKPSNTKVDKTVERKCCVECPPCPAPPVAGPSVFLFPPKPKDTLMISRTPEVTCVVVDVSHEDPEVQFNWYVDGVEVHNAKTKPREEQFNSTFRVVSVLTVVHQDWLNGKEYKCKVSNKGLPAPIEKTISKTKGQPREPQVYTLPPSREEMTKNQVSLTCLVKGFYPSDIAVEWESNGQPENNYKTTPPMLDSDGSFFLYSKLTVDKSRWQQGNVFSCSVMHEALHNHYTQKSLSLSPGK
B4: IFA45 (antibody, human IgG2, kappa)
heavy: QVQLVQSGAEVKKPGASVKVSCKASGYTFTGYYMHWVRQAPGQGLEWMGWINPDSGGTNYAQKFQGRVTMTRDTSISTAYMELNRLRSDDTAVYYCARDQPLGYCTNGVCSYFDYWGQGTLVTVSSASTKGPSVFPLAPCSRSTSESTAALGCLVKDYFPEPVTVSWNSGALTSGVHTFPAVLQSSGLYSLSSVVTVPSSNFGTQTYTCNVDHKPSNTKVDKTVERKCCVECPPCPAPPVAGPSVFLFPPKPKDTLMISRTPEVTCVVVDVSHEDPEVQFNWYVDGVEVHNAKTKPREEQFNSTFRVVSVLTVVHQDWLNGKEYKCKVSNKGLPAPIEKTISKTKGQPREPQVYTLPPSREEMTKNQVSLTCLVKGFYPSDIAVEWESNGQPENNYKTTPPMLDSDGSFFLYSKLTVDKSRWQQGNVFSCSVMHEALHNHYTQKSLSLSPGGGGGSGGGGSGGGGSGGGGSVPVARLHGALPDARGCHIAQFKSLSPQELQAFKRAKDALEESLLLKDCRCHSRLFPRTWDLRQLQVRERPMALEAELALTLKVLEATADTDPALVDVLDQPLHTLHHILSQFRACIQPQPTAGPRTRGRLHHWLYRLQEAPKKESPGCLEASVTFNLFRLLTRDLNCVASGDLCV
light: B2 light
B5: IFA106 (antibody, human IgG2, kappa)
heavy: QVQLVESGGGVVQPGKSLRLSCAASGFTFSSNGIHWVRQAPGKGLEWVAVIWSDGSNKFYADSVKGRFTISRDNSKNTLYLQMNSLRAEDTAVYYCARASGSGSYYNFFDYWGQGTLVTVSSASTKGPSVFPLAPCSRSTSESTAALGCLVKDYFPEPVTVSWNSGALTSGVHTFPAVLQSSGLYSLSSVVTVPSSNFGTQTYTCNVDHKPSNTKVDKTVERKCCVECPPCPAPPVAGPSVFLFPPKPKDTLMISRTPEVTCVVVDVSHEDPEVQFNWYVDGVEVHNAKTKPREEQFNSTFRVVSVLTVVHQDWLNGKEYKCKVSNKGLPAPIEKTISKTKGQPREPQVYTLPPSREEMTKNQVSLTCLVKGFYPSDIAVEWESNGQPENNYKTTPPMLDSDGSFFLYSKLTVDKSRWQQGNVFSCSVMHEALHNHYTQKSLSLSPGPAPASYNLLGFLQRSSNFQCQKLLWQLNGRLEYCLKDRMNFDIPEEIKQLQQFQKEDAALTIYEMLQNIFAIFRQDSSSTGWNETIVENLLANVYHQINHLKTVLEEKLEKEDFTRGKLMSSLHLKRYYGRILHYLKAKEYSHCAWTIVRVEILRNFYFINRLTGYLRN
light: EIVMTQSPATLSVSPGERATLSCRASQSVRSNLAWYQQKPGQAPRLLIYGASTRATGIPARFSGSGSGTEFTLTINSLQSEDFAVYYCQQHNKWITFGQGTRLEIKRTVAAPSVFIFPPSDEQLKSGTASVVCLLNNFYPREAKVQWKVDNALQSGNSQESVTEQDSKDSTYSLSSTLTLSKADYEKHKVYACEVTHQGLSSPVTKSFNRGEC
B6: IFA107 (antibody, human IgG2, kappa)
heavy: B5 heavy with C467S
light: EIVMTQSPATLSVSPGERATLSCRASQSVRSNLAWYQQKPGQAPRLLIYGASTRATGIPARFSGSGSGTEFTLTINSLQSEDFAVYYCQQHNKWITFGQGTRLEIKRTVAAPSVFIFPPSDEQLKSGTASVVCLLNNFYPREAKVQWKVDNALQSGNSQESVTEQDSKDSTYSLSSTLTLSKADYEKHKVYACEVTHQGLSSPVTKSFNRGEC
B7: IFA108 (antibody, human IgG2, kappa)
heavy: QVQLVESGGGVVQPGKSLRLSCAASGFTFSSNGIHWVRQAPGKGLEWVAVIWSDGSNKFYADSVKGRFTISRDNSKNTLYLQMNSLRAEDTAVYYCARASGSGSYYNFFDYWGQGTLVTVSSASTKGPSVFPLAPCSRSTSESTAALGCLVKDYFPEPVTVSWNSGALTSGVHTFPAVLQSSGLYSLSSVVTVPSSNFGTQTYTCNVDHKPSNTKVDKTVERKCCVECPPCPAPPVAGPSVFLFPPKPKDTLMISRTPEVTCVVVDVSHEDPEVQFNWYVDGVEVHNAKTKPREEQFNSTFRVVSVLTVVHQDWLNGKEYKCKVSNKGLPAPIEKTISKTKGQPREPQVYTLPPSREEMTKNQVSLTCLVKGFYPSDIAVEWESNGQPENNYKTTPPMLDSDGSFFLYSKLTVDKSRWQQGNVFSCSVMHEALHNHYTQKSLSLSPGAEAAAKEAAAKASYNLLGFLQRSSNFQCQKLLWQLNGRLEYCLKDRMNFDIPEEIKQLQQFQKEDAALTIYEMLQNIFAIFRQDSSSTGWNETIVENLLANVYHQINHLKTVLEEKLEKEDFTRGKLMSSLHLKRYYGRILHYLKAKEYSHCAWTIVRVEILRNFYFINRLTGYLRN
light: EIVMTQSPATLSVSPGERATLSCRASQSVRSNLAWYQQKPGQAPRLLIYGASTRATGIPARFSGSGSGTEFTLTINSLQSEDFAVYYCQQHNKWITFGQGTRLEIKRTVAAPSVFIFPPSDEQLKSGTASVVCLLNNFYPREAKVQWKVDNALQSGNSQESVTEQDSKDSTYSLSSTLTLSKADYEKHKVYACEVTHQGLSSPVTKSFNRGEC
B8: IFA109 (antibody, human IgG2, kappa)
heavy: B7 heavy with C475S
light: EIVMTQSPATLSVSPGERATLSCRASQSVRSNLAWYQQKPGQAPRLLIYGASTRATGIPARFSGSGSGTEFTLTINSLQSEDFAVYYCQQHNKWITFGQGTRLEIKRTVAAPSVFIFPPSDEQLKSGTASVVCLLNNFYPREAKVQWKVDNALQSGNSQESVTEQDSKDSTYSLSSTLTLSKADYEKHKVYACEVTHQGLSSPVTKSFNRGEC
B9: IFA125 (antibody, human IgG2, kappa)
heavy: QVQLVESGGGVVQPGKSLRLSCAASGFTFSSNGIHWVRQAPGKGLEWVAVIWSDGSNKFYADSVKGRFTISRDNSKNTLYLQMNSLRAEDTAVYYCARASGSGSYYNFFDYWGQGTLVTVSSASTKGPSVFPLAPCSRSTSESTAALGCLVKDYFPEPVTVSWNSGALTSGVHTFPAVLQSSGLYSLSSVVTVPSSNFGTQTYTCNVDHKPSNTKVDKTVERKCCVECPPCPAPPVAGPSVFLFPPKPKDTLMISRTPEVTCVVVDVSHEDPEVQFNWYVDGVEVHNAKTKPREEQFNSTFRVVSVLTVVHQDWLNGKEYKCKVSNKGLPAPIEKTISKTKGQPREPQVYTLPPSREEMTKNQVSLTCLVKGFYPSDIAVEWESNGQPENNYKTTPPMLDSDGSFFLYSKLTVDKSRWQQGNVFSCSVMHEALHNHYTQKSLSLSPGGGGGSGGGGSGGGGSGGGGSQDPYVKEAENLKKYFNAGHSDVADNGTLFLGILKNWKEESDRKIMQSQIVSFYFKLFKNFKDDQSIQKSVETIKEDMNVKFFNSNKKKRDDFEKLTNYSVTDLNVQRKAIHELIQVMAELSPAAKTGKRKRSQMLFRGRRASQ
light: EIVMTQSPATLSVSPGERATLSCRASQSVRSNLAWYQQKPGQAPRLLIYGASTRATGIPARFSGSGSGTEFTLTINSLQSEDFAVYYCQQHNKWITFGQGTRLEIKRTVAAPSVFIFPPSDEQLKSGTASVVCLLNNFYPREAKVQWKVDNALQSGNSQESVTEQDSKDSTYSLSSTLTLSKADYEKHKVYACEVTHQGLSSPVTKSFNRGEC
B10: CP870,893 (antibody, human IgG2, kappa)
heavy: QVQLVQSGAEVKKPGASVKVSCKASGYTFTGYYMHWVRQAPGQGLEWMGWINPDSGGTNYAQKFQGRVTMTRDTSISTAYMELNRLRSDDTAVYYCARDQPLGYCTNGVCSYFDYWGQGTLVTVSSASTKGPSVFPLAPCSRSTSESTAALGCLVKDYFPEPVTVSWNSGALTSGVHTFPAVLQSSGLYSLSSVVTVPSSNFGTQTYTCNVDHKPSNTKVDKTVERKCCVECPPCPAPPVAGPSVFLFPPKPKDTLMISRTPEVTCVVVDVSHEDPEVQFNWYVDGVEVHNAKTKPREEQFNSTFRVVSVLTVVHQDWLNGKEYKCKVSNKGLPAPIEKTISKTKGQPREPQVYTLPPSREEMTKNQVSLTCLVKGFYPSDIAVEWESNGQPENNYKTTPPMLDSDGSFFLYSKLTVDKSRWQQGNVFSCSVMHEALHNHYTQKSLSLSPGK
light: B2 light
B11: 3G5 (antibody, human IgG2, kappa)
heavy: QVQLVESGGGVVQPGKSLRLSCAASGFTFSSNGIHWVRQAPGKGLEWVAVIWSDGSNKFYADSVKGRFTISRDNSKNTLYLQMNSLRAEDTAVYYCARASGSGSYYNFFDYWGQGTLVTVSSASTKGPSVFPLAPCSRSTSESTAALGCLVKDYFPEPVTVSWNSGALTSGVHTFPAVLQSSGLYSLSSVVTVPSSNFGTQTYTCNVDHKPSNTKVDKTVERKCCVECPPCPAPPVAGPSVFLFPPKPKDTLMISRTPEVTCVVVDVSHEDPEVQFNWYVDGVEVHNAKTKPREEQFNSTFRVVSVLTVVHQDWLNGKEYKCKVSNKGLPAPIEKTISKTKGQPREPQVYTLPPSREEMTKNQVSLTCLVKGFYPSDIAVEWESNGQPENNYKTTPPMLDSDGSFFLYSKLTVDKSRWQQGNVFSCSVMHEALHNHYTQKSLSLSPG
light: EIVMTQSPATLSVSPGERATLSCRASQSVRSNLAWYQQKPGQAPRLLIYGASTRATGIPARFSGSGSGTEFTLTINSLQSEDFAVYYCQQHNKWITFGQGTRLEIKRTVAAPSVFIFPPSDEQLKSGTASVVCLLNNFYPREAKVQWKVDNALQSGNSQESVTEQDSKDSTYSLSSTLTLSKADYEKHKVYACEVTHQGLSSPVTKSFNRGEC

Experiments:
Experiment in all cases: cell-based or functional assay
human CD40 [1] = molecular target: T2, human CD40 (human, UniProt P25942 21-277)
T2 sequence (P25942 21-277): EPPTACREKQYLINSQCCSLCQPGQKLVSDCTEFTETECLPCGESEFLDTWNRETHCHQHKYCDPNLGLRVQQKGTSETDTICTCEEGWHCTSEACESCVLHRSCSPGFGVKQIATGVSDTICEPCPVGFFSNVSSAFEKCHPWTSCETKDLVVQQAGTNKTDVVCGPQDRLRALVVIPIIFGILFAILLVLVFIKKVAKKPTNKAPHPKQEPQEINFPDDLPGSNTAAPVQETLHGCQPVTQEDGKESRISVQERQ

[2] = molecular target: human IFNγ receptor on HEK-Blue IFN-γ cells (human)
[3] = molecular target: human IFNγ receptor on HEK-Blue IFN-γ cells (human); remark: listed apart in the source
[4] = molecular target: human IFNλ receptor on HEK-Blue IFN-λ cells (human)
human CD40 [5] = molecular target: T2, human CD40; remark: listed apart in the source
[6] = molecular target: T1, human type I IFN receptor on HEK-Blue …
[7] = molecular target: human IFNγ receptor on HEK-Blue IFN-γ cells (human); remark: listed apart in the source
human CD40 [8] = molecular target: T2, human CD40; remark: listed apart in the source

Row | Binder | CD40 EC50 (HEK-Blue CD40L NFκB-SEAP reporter cells) (human CD40 [1]) | CD40 EC50 (HEK-Blue CD40L NFκB-SEAP reporter cells) (human CD40 [5]) | IFNβ EC50 (HEK-Blue IFN-α/β SEAP reporter cells) [6] | other results
1 | B1 | 65.6 ng/mL | – | – | IFNγ EC50 (HEK-Blue IFNγ reporter cells) [2]: 15.4 ng/mL
2 | B2 | 50.8 ng/mL | – | – | IFNγ EC50 (HEK-Blue IFNγ reporter cells) [3]: < 0.01 ng/mL; IFNγ EC50 (HEK-Blue IFNγ reporter cells) [2]: < 0.001 ng/mL
3 | B3 | 41.4 ng/mL | – | – | IFNλ EC50 (HEK-Blue IFNλ reporter cells) [4]: 0.153 ng/mL
4 | B4 | 25.8 ng/mL | – | – | IFNλ EC50 (HEK-Blue IFNλ reporter cells) [4]: < 0.001 ng/mL
5 | B5 | – | 190 ng/mL | 10.3 ng/mL | –
6 | B6 | – | 142 ng/mL | 2.03 ng/mL | –
7 | B7 | – | 37.3 ng/mL | 1.27 ng/mL | –
8 | B8 | – | 30 ng/mL | 0.45 ng/mL | –
9 | B9 | – | 8.8 ng/mL | – | IFNγ EC50 (HEK-Blue IFNγ reporter cells) [7]: 0.142 ng/mL
10 | B10 | – | – | – | CD40 EC50 (HEK-Blue CD40L NFκB-SEAP reporter cells) (human CD40 [8]): 30 to 80 ng/mL; CD40 EC50, mean (HEK-Blue CD40L NFκB-SEAP reporter cells) (human CD40 [8]): 48 ng/mL; CD40 EC50 in the experiment of FIG. 3 (HEK-Blue CD40L NFκB-SEAP reporter cells) (human CD40 [8]): 57 ng/mL
11 | B11 | – | – | – | CD40 EC50, mean (HEK-Blue CD40L NFκB-SEAP reporter cells) (human CD40 [8]): 9.3 ng/mL
